Experimental findings from US20260243766A1 (CHILDREN S HOSPITAL OF PHILADELPHIA, published 2026) are described below.

One may read the Kd as the free concentration of one partner at which half of the binding sites on the other are occupied at equilibrium, for simple one-to-one binding. Higher therefore signals weaker binding.

The assay deals with T1, A*23:01/PHOX2B (human, UniProt P61769 21-119, limits assumed).
T1 construct: The preparation of this complex is not described; also called HLA-A*23:01/PHOX2B complex
Nature of the assay: SPR. In general terms: SPR reads the build-up and loss of mass on a sensor chip optically.

T1 sequence (P61769 21-119 limits assumed, chain 3 of 2, other chains not shown): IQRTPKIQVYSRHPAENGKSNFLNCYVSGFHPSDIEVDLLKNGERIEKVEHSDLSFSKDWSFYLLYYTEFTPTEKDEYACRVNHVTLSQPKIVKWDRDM

B1: 10LH single-chain antibody fragment (Clone 10 (RU141-10) scFv) (scFv)
scFv: SRNGGDGQSVLTQPPSVSVSPGQTASITCSGDSLGNKYACWYQQKPGQSPVLVIYQDSKRPSGIPERFSGSNSGNTATLTISGTQAMDEADYYCQAWDSSRGYTVVFGTGTKVTVSSQTGGSGGGGSGGGGSGGGGSEVQLLESGGGLVQPGGSLRLSCAASGFTFDSYAMSWVRQAPGKGLEWVSAISGYGGSTYYADSVKGRFTISRDNSKNTLYLQMNSLRAEDTAVYYCAKYTYFLDAFDIWGQGTMVTVSSS
notes: also called Clone 10LH; scFV 10LH
B1 returned a Kd of around 20 µM.
